The series “crystal structure” deals with the molecule itself. Put plainly: crystal structure.
The next series concerns the target endogenous Cavin1 (HeLa) (Homo sapiens (HeLa), UniProt Q6NZI2). Put plainly: co-IP.
In another series the target is endogenous CAV1 (HeLa) (Homo sapiens (HeLa), UniProt Q03135). Description: co-IP.
Series [1] has as its target mouse Cavin1 HR1 domain (His-Ub construct) (Mus musculus (Mouse)., UniProt O54724). Description: ITC.
The target in series [2] is zebrafish Cavin4b HR1 domain (Danio rerio, UniProt A0A8M1N3J3). Description: ITC. Background: ITC needs no label: the signal is the heat of the interaction.
Series [3] concerns the target zebrafish Cavin4a HR1 domain (Danio rerio, UniProt A1L260). Put plainly: ITC.
Series [4] addresses mouse Cavin1 HR1 N-terminal fragment mC1-HR1(45-103) (Mus musculus, UniProt O54724). Put plainly: ITC.
The target of series [5] is His-MBP full-length mouse Cavin1 (Mus musculus (Mouse)., UniProt O54724). Put plainly: ITC.
Series [6] has as its target GST-tagged mouse Cavin1 HR1 domain (Mus musculus, UniProt O54724). Put plainly: pull-down.

Sequence of His-MBP full-length mouse Cavin1 (O54724 whole entry, the tested form may be a part): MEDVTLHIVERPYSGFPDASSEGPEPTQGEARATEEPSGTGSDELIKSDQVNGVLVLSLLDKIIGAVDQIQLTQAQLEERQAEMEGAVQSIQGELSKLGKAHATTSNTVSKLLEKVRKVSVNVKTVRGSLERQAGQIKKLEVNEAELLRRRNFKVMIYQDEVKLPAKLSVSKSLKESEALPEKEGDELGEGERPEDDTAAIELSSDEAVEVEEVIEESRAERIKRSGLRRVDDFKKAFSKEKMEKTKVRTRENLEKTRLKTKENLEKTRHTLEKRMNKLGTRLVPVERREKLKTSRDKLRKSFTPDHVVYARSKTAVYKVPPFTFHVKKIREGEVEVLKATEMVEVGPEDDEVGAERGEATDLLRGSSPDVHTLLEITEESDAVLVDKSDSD
Sequence of endogenous CAV1 (HeLa) (Q03135 whole entry, the tested form may be a part): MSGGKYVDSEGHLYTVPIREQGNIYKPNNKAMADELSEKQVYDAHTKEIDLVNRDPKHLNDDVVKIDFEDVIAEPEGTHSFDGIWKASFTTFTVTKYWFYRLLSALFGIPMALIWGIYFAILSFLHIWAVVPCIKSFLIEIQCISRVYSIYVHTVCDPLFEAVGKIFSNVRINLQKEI
Sequence of zebrafish Cavin4a HR1 domain (A1L260 whole entry, looked up, the tested form may be a part): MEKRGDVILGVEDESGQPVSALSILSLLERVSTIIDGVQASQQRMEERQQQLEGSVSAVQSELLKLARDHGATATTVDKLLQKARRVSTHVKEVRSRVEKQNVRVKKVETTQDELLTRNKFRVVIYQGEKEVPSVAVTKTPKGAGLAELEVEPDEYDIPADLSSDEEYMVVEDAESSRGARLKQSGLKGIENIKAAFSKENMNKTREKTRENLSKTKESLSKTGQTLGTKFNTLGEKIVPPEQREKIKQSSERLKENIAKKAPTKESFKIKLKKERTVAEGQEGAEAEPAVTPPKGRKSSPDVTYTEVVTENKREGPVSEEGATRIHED
Sequence of endogenous Cavin1 (HeLa) (Q6NZI2 whole entry): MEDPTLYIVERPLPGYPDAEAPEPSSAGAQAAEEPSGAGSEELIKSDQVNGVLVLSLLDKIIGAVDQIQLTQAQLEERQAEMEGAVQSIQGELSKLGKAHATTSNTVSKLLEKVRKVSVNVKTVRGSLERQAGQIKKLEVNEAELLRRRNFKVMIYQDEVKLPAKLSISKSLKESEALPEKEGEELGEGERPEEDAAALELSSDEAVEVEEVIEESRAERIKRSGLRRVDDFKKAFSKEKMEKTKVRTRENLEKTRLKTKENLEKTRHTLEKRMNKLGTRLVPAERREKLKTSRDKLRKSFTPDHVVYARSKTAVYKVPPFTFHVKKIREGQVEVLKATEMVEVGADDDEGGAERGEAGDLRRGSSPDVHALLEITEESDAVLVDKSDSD

B1: mouse Cavin1 HR1 domain (as crystallised with NbB7) (domain or fragment, UniProt O54724 45-155, looked up)
chain: LIKSDQVNGVLVLSLLDKIIGAVDQIQLTQAQLEERQAEMEGAVQSIQGELSKLGKAHATTSNTVSKLLEKVRKVSVNVKTVRGSLERQAGQIKKLEVNEAELLRRRNFKV
One may read the stoichiometry N as a count of units in the complex or per binding partner. In the case of B1, the “stoichiometry N” value in “crystal structure” is 3.

B2: NbB7-GFP (VHH)
VHH: QVQLQESGGGLVQAGGSLRLSCAVSGIRVNVNAMYWYRQAPGKQRELVAIITTFGSTNYADSAKGRFTISRDNTKNTVYLQMDNLKPEDTAVYYCNAPQFTDRYWGQGTQVTVSS
In the case of B2, the binding result in the series with endogenous Cavin1 (HeLa) and with endogenous CAV1 (HeLa) was “binds” in each case.

B3: nanobody NbB7 (VHH)
VHH: B2 VHH
By Kd is commonly meant the free concentration of one partner at which half of the binding sites on the other are occupied at equilibrium, for simple one-to-one binding. High values mean a looser complex, low ones a tighter complex. Take B3: in series [1], binding was characterised by a dissociation constant (Kd) of 520 nM. Besides, the binding result in series [2] was “no binding”.

B4: nanobody NbA12 (VHH)
VHH: QVQLQESGGGLVQAGGSLRLSCAASGFTFDDYAIGWFRQAPGKEREGVSCITSSDGSTYYADSVKGRFTISSDNAKNTVYLQMNSLKPEDTAVYYCAAESWPPLCHYSGMDYWGKGTQVTVSS
Regarding B4, the binding result is given as “no binding” in series [3]; “binds” in [4]; “binds” in [1]; “binds” in [5]; “no binding” in [2]; “binds” in series [6].

(Values after publication doi:10.1101/2024.11.26.625551 (bioRxiv, 2024).)
